Ends that are not written are not given here.
T1: calreticulin (UniProt P27797 18-417, limits assumed)
T1 construct: also called CRT; recombinant calreticulin
T1 sequence (looked up): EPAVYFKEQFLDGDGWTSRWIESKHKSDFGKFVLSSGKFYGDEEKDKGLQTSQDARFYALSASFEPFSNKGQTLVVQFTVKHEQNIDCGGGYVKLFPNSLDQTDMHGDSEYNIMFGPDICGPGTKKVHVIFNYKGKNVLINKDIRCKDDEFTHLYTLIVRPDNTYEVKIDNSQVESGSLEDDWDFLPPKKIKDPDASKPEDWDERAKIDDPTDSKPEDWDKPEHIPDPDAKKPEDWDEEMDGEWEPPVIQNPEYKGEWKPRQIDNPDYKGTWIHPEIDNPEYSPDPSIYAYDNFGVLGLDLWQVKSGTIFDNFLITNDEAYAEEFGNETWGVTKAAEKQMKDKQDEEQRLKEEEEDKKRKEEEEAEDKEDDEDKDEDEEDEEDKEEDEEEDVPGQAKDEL

B1: PA-dPEG02 (peptide)
peptide: IALILEPICCQERAA-dPEG02
modifications: cysteine pairing not given here
B2: PA-dPEG06 (peptide)
peptide: IALILEPICCQERAA-dPEG06
modifications: cysteine pairing not given here
B3: PA-dPEG16 (peptide)
peptide: IALILEPICCQERAA-dPEG16
modifications: cysteine pairing not given here
B4: PA-dPEG03 (peptide)
peptide: IALILEPICCQERAA-dPEG03
modifications: cysteine pairing not given here
B5: Polar Assortant peptide (peptide)
peptide: IALILEPICCQERAA
notes: also called PA; PIC1
B6: PA-dPEG08 (peptide)
peptide: IALILEPICCQERAA-dPEG08
modifications: cysteine pairing not given here
B7: PA-dPEG12 (peptide)
peptide: IALILEPICCQERAA-dPEG12
modifications: cysteine pairing not given here
B8: PA-dPEG20 (peptide)
peptide: IALILEPICCQERAA-dPEG20
modifications: cysteine pairing not given here
B9: PA-dPEG04 (peptide)
peptide: IALILEPICCQERAA-dPEG04
modifications: cysteine pairing not given here
B10: PA-dPEG24 (peptide)
peptide: IALILEPICCQERAA-dPEG24
modifications: cysteine pairing not given here

Legend:
C1q (human) = C1q (human) (UniProt P02745); assay: cell-based or functional assay
Chain of C1q (human) (P02745 23-245, chain 1 of 3): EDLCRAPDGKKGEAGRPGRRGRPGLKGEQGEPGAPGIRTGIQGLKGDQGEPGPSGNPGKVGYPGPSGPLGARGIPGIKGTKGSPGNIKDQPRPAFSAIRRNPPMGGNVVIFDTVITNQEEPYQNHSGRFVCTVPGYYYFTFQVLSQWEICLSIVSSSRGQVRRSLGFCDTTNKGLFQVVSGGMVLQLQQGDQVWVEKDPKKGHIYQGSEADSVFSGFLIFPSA
Chain of C1q (human) (P02746 28-253, chain 2 of 3, further chain): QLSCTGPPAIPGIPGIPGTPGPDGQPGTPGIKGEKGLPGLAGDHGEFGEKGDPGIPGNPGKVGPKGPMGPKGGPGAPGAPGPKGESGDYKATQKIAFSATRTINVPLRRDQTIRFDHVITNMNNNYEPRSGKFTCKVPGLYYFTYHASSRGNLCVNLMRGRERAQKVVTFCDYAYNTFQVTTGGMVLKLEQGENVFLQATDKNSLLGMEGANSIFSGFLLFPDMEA
Chain of C1q (human) (P02747 29-245, chain 3 of 3, further chain): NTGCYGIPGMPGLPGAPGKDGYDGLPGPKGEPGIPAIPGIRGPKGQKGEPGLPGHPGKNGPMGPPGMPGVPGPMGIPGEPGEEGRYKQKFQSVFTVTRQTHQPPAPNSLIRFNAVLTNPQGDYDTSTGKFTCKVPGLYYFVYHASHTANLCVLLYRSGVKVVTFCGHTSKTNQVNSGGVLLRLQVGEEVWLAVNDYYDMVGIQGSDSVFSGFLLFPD

BSA = target: T2, BSA (UniProt P02769 25-607); assay: plates coated with C1q, calreticulin and BSA, PA peptide added (FIG. 14A)
T2 construct: Negative control
T2 sequence (P02769 25-607 limits assumed): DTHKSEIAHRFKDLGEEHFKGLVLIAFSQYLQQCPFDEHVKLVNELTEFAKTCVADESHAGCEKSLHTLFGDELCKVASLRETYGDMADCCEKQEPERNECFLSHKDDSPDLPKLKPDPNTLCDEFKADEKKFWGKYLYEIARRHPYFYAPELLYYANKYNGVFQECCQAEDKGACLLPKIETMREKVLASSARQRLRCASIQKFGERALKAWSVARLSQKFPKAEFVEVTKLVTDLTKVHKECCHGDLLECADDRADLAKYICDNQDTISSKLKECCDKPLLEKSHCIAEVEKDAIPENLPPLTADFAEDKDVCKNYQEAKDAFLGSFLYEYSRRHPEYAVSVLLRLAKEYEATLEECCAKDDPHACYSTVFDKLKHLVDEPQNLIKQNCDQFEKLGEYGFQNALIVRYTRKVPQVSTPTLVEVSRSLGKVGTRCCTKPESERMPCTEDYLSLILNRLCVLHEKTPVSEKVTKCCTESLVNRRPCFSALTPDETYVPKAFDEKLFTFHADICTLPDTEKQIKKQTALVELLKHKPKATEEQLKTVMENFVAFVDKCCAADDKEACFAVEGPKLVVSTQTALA

calreticulin = target: T1, calreticulin; assay: as above

Binder | Hemolysis (%), sensitized sheep RBCs, factor B-depleted human serum, peptide 0.77 mM (C1q (human)) [%] | other results
B1 | 11.6 | –
B2 | 44.8 | –
B3 | 12 | –
B4 | 12.6 | –
B5 | – | binding result (BSA): no binding; binding result (calreticulin): no binding
B6 | 34.7 | –
B7 | 11.4 | –
B8 | 11.4 | –
B9 | 12.4 | –
B10 | 2.99 | Hemolysis in presence of PA-dPEG24 (Abs 412 nm), plasma of Donor O+ #1 with B+ erythrocytes (0.747 without peptide) (C1q (human)): 0.008 Abs 412 nm; inhibition of hemolysis of B erythrocytes by type-O plasma, dose-response (FIG. 8) (C1q (human)): > 95%
